In IntAct's records for PubMed 21803990:

B1: ATP-dependent protease ATPase subunit HslU (Escherichia coli (strain K12)), P0A6H5 (parent)
chain: MSEMTPREIVSELDKHIIGQDNAKRSVAIALRNRWRRMQLNEELRHEVTPKNILMIGPTGVGKTEIARRLAKLANAPFIKVEATKFTEVGYVGKEVDSIIRDLTDAAVKMVRVQAIEKNRYRAEELAEERILDVLIPPAKNNWGQTEQQQEPSAARQAFRKKLREGQLDDKEIEIDLAAAPMGVEIMAPPGMEEMTSQLQSMFQNLGGQKQKARKLKIKDAMKLLIEEEAAKLVNPEELKQDAIDAVEQHGIVFIDEIDKICKRGESSGPDVSREGVQRDLLPLVEGCTVSTKHGMVKTDHILFIASGAFQIAKPSDLIPELQGRLPIRVELQALTTSDFERILTEPNASITVQYKALMATEGVNIEFTDSGIKRIAEAAWQVNESTENIGARRLHTVLERLMEEISYDASDLSGQNITIDADYVSKHLDALVADEDLSRFIL
partner: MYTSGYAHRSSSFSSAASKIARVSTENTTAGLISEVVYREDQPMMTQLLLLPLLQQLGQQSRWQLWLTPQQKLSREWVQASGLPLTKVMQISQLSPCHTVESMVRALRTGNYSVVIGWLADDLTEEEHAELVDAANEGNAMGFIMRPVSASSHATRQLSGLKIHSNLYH

Variants of: B1
Conditions: with sula_ecoli sulA

Y408A was tested. Which “effect of a mutation on the interaction” value did it give?
Its value is “increasing interaction”.

For Y91F, which “effect of a mutation on the interaction” value is on record?
The value was “increasing interaction”.

Which “effect of a mutation on the interaction” value does the source give for E266Q here?
Its value is “increasing interaction”.

Variants of: B1
Conditions: with sula_ecoli sulA
Remark: another data set of the same source

For G90D, which “effect of a mutation on the interaction” value is on record?
Its value is “increasing interaction”.
